According to patent US20240116985A1, “STAPLED PEPTIDES AND METHODS THEREOF” (priority 2020, published 2024):
Starred links: 1 amine or outer side, 2 acyl side, 3 side chain; linkers in the order of their positions; H or OH if unused. Positions of bridges follow the written chain, without caps; N, C: chain ends. Non-standard residues stand in square brackets, D forms with d. Groups on a side chain read outwards from the residue. Primed or numbered codes have the meaning given here. No end group written: not given here. *: point of attachment. PyrS2″ = (S)-3-amino-1-((pent-4-en-1-yloxy)carbonyl)pyrrolidine-3-carboxylic acid (stapling residue), C=CCCCOC(=O)N1CC[C@@](N[*:1])(C(=O)[*:2])C1; B5(4) = 2,2-bis(4-pentenyl)glycine = 2-amino-2-(pent-4-en-1-yl)hept-6-enoic acid (stitching residue), C=CCCCC(CCCC=C)(N[*:1])C(=O)[*:2]; B5(5) = 2,2-bis(4-pentenyl)glycine, 2-amino-2-(pent-4-en-1-yl)hept-6-enoic acid (stitching residue), C=CCCCC(CCCC=C)(N[*:1])C(=O)[*:2]; (CH2NMe2)4SEF = (S)-2-amino-3-(4-(3-(dimethylamino)prop-1-yn-1-yl)phenyl)propanoic acid, CN(C)CC#Cc1ccc(C[C@H](N[*:1])C(=O)[*:2])cc1; TfeGA = (S)-2-amino-3-((carboxymethyl)(2,2,2-trifluoroethyl)amino)propanoic acid, O=C([C@H](CN(CC(=O)[*:3])CC(F)(F)F)N[*:1])[*:2]; B5(31) = 2-amino-2-(pent-4-en-1-yl)hept-6-enoic acid (bis-pentenylglycine, stitching residue), C=CCCCC(CCCC=C)(N[*:1])C(=O)[*:2]; PyrS2 = (S)-3-amino-1-((pent-4-en-1-yloxy)carbonyl)pyrrolidine-3-carboxylic acid, C=CCCCOC(=O)N1CC[C@@](N[*:1])(C(=O)[*:2])C1; 5iPr3COOHF = (S)-3-(2-amino-2-carboxyethyl)-5-isopropylbenzoic acid, CC(C)c1cc(C[C@H](N[*:1])C(=O)[*:2])cc(C(=O)[*:3])c1; (3C)TriAzLys = (S)-2-amino-6-(4-propyl-1H-1,2,3-triazol-1-yl)hexanoic acid, CCCc1cn(CCCC[C@H](N[*:1])C(=O)[*:2])nn1; (bismethoxyethylamine)GlnR″ = N5,N5-bis(2-methoxyethyl)-L-glutamine, COCCN(CCOC)C(=O)CC[C@H](N[*:1])C(=O)[*:2]; Lithocholoyl = C[C@H](CCC(=O)*)[C@H]1CC[C@H]2[C@@H]3CC[C@@H]4C[C@H](O)CC[C@]4(C)[C@H]3CC[C@]12C; MorphAsn = (S)-2-amino-4-morpholino-4-oxobutanoic acid, O=C(C[C@H](N[*:1])C(=O)[*:2])N1CCOCC1; B5(3) = 2,2-bis(4-pentenyl)glycine (stitching residue), C=CCCCC(CCCC=C)(N[*:1])C(=O)[*:2]; Me3AdamantC = 3,5,7-trimethyladamantane-1-carbonyl, CC12CC3(C)CC(C)(C1)CC(C(=O)*)(C2)C3; CO2Hex = N-term cyclohexyl hydrogen carbonate, O=C(OC1CCCCC1)*; CO2Ph = N-term phenyl hydrogen carbonate, O=C(Oc1ccccc1)*; Nva(5-morpholino) = N[C@@H](CCCN1CCOCC1)C(=O)O; Phe(3-COOH) = N[C@@H](Cc1cccc(C(=O)O)c1)C(=O)O; 2F3MeF = Cc1cccc(C[C@H](N[*:1])C(=O)[*:2])c1F; Phe(2-CF3) = N[C@@H](Cc1ccccc1C(F)(F)F)C(=O)O; Phe(2-Cl) = N[C@@H](Cc1ccccc1Cl)C(=O)O; Bta = N[C@@H](Cc1csc2ccccc12)C(=O)O; Lys(iPr) = CC(C)NCCCC[C@H](N)C(=O)O; αAllylPro = C=CC[C@@]1(C(=O)O)CCCN1; Azidoacetyl = [N-]=[N+]=NCC(=O)*; tBuAla = CC(C)(C)C[C@H](N)C(=O)O; 3Thi = N[C@@H](Cc1ccsc1)C(=O)O; Cha = N[C@@H](CC1CCCCC1)C(=O)O; hSer = N[C@@H](CCO)C(=O)O; 34ClF = not defined here; PEG2′ = not defined here; Aib = CC(C)(N)C(=O)O; Moc = COC(=O)*

B1: I-2417 (peptide)
peptide: Ac-[αAllylPro]D[tBuAla][B5(5)]NT[Aib]AFN[PyrS2″][3Thi][34ClF]Q-NH2
modifications: staple 1-4, 4-11; reading uncertain; also: printed as Ac-PL3-Asp-Npg-B5-Asn-Thr-Aib-Ala-Phe-Asn-PyrS2-3Thi-34C1F-Gln-NH2

target: full-length beta-Catenin (Uniprot ID P35222) (Homo sapiens (Human)) (UniProt P35222); test: fluorescence polarization competition; full-length beta-catenin, competitor 5FAM-TCF4(10-53) probe

Compared with Ac-[αAllylPro]D[tBuAla][B5(5)]NT[Aib]AFN[PyrS2″][3Thi][Bta]A-NH2 (staple 1-4, 4-11) [I-2411], {2‑(3-(allyloxy)phenyl)acetyl}-PD[tBuAla][B5(5)]D[TfeGA]AAFL[PyrS2][3Thi][Bta]Q-NH2 (staple 4-11, N-4; also: staples hydrogenated, -CH=CH- reduced to -CH2-CH2-) [I-2405] is 4.1-fold higher in IC50: 140 nM for the first, 568 nM for the second.

First: CO2Ph-[αAllylPro]D[tBuAla][B5(31)]D[Phe(3-COOH)]AAFL[PyrS2″][Phe(2-Cl)][Bta]A-NH2 (staple 1-4, 4-11) [I-2327]
Second: Ac-[αAllylPro][hSer][tBuAla][B5(5)]DQAAFH[PyrS2″]F[Bta]Q-NH2 (staple 1-4, 4-11) [I-2439]
The IC50 of the first is 7.3-fold lower: 376 nM for the first, 2760 nM for the second. The first is the more potent here.

Compared with Ac-[αAllylPro]D[tBuAla][B5(5)]D[Phe(3-COOH)]AAFL[PyrS2″][Phe(2-CF3)][Bta]S[(3C)TriAzLys]-NH2 (staple 1-4, 4-11) [I-2432], Ac-[αAllylPro]N[Cha][B5(5)]DQNAFL[PyrS2″]F[Bta]K-NH2 (staple 1-4, 4-11) [I-2420] is 35-fold higher in IC50: 60 nM for the first, 2120 nM for the second.

Going from CO2Hex-[αAllylPro]D[tBuAla][B5(31)]D[Phe(3-COOH)]AAFL[PyrS2″][Phe(2-Cl)][Bta]A-NH2 (staple 1-4, 4-11) [I-2325] to Moc-[αAllylPro]D[tBuAla][B5(3)]D[Phe(3-COOH)]AAFL[PyrS2″][Phe(2-Cl)][Bta]A-NH2 (staple 1-4, 4-11) [I-2324], the IC50 falls from 1350 nM to 83 nM (16-fold). The second is the more potent here.

First: Ac-[αAllylPro]N[Cha][B5(5)]DQ[Lys(iPr)]AFL[PyrS2″]F[Bta][Nva(5-morpholino)]-NH2 (staple 1-4, 4-11) [I-2428]
Second: Ac-[αAllylPro]N[Cha][B5(5)]DQ[Lys(iPr)]AFL[PyrS2″]F[Bta][MorphAsn]-NH2 (staple 1-4, 4-11) [I-2426]
The IC50 of the first is 8.7-fold higher: 401 nM for the first, 46 nM for the second. The second is the more potent here.

Ac-[αAllylPro]N[Cha][B5(5)]DQ[hSer]AFL[PyrS2″]F[Bta]K-NH2 (staple 1-4, 4-11) [I-2419] and B1 are within 1.5-fold of each other in IC50: 203 nM for the first, 158 nM for the second.

First: Ac-[αAllylPro]N[tBuAla][B5(31)]NTAAFN[PyrS2″][3Thi][Bta]Q-NH2 (staple 1-4, 4-11) [I-2333]
Second: Ac-[αAllylPro][hSer][tBuAla][B5(5)]DHAAFT[PyrS2″]F[Bta]Q-NH2 (staple 1-4, 4-11) [I-2438]
The IC50 of the first is 5.7-fold higher: 10000 nM for the first, 1760 nM for the second. The second is the more potent here.

First: Ac-[αAllylPro]D[tBuAla][B5(31)]NTAAFT[PyrS2″][3Thi][Bta]A-NH2 (staple 1-4, 4-11) [I-2334]
Second: Ac-[αAllylPro]D[tBuAla][B5(5)]NT[Aib]AFL[PyrS2][3Thi][Bta]Q-NH2 (staple 1-4, 4-11) [I-2408]
The IC50 of the first is 15-fold lower: 656 nM for the first, 10000 nM for the second. The first is the more potent here.

Going from Ac-[αAllylPro]E[tBuAla][B5(31)]NTAAFN[PyrS2″][3Thi][Bta]Q-NH2 (staple 1-4, 4-11) [I-2332] to Ac-[αAllylPro]D[tBuAla][B5(5)]NT[Aib]AFN[PyrS2″][3Thi][Bta]R-NH2 (staple 1-4, 4-11) [I-2413], the IC50 falls from 10000 nM to 133 nM (75-fold). The second is the more potent here.

Ac-[αAllylPro]D[tBuAla][B5(5)]NT[Aib]AFN[PyrS2″][3Thi][Bta]F-NH2 (staple 1-4, 4-11) [I-2412] and CO2Ph-[αAllylPro]D[tBuAla][B5(31)]DDAAFQ[PyrS2″][3Thi][Bta]H-NH2 (staple 1-4, 4-11) [I-2326] are within 1.5-fold of each other in IC50: 267 nM for the first, 185 nM for the second.

Going from Ac-[αAllylPro]N[tBuAla][B5(5)]DQAAFH[PyrS2″]F[Bta]Q-NH2 (staple 1-4, 4-11) [I-2440] to Ac-[αAllylPro]D[tBuAla][B5(5)]D[5iPr3COOHF]QAFL[PyrS2″][Phe(2-CF3)][Bta]A-NH2 (staple 1-4, 4-11) [I-2431], the IC50 falls from 360 nM to 33 nM (11-fold).

First: Ac-[αAllylPro]N[Cha][B5(5)]DQSAFL[PyrS2″]F[Bta]K-NH2 (staple 1-4, 4-11) [I-2422]
Second: Ac-[αAllylPro]E[tBuAla][B5(31)]NTAAFN[PyrS2″][3Thi][Bta]Q-NH2 (staple 1-4, 4-11; also: staple isomer, earlier eluting HPLC peak) [I-2331]
The IC50 of the first is 3-fold lower: 3360 nM for the first, 10000 nM for the second. The first is the more potent here.

Ac-[αAllylPro]D[tBuAla][B5(4)]D[Phe(3-COOH)][(bismethoxyethylamine)GlnR″]AFL[PyrS2″][2F3MeF][Bta]A-NH2 (staple 1-4, 4-11) [I-2322] and Ac-[αAllylPro]D[Cha][B5(5)]DQ[Lys(iPr)]AFL[PyrS2″]F[Bta]K-NH2 (staple 1-4, 4-11) [I-2429] are within 1.5-fold of each other in IC50: 7 nM for the first, 10 nM for the second.

Going from Ac-[αAllylPro]N[Cha][B5(5)]DQQAFL[PyrS2″]F[Bta]K-NH2 (staple 1-4, 4-11) [I-2421] to Ac-[αAllylPro]D[tBuAla][B5(3)]N[Phe(3-COOH)]AAFN[PyrS2″][3Thi][Bta]Q-NH2 (staple 1-4, 4-11) [I-2335], the IC50 falls from 145 nM to 7 nM (21-fold).

Going from Azidoacetyl-[αAllylPro]D[tBuAla][B5(5)]DDAAFN[PyrS2]F[Bta]H-NH2 (staple 1-4, 4-11) [I-1055] to Azidoacetyl-[αAllylPro]D[tBuAla][B5(5)][3Thi][TfeGA]AAFN[PyrS2]D[Bta]Q-NH2 (staple 1-4, 4-11; also: staple isomer unspecified: later eluting HPLC peak) [I-1057], the EC50 rises from 7 nM to 6640 nM (950-fold).

Compared with Azidoacetyl-[αAllylPro]D[tBuAla][B5(5)]DDAAFT[PyrS2][Phe(2-Cl)][Bta][dT]-NH2 (staple 1-4, 4-11) [I-1060], Azidoacetyl-[αAllylPro]D[tBuAla][B5(5)][3Thi][TfeGA]AAFN[PyrS2]D[Bta]Q-NH2 (staple 1-4, 4-11; also: staple isomer unspecified: earlier eluting HPLC peak) [I-1056] is 170-fold higher in EC50: 38 nM for the first, 6490 nM for the second.

In the case of Azidoacetyl-[αAllylPro]D[tBuAla][B5(5)]DDAAFN[PyrS2][3Thi][Bta][dT]-NH2 (staple 1-4, 4-11) [I-1058], the EC50 is reported as 14 nM.

target: full-length beta-Catenin (Uniprot ID P35222) (Homo sapiens (Human)) (UniProt P35222); test: fluorescence polarization competition; displacement of 5FAM-TCF4(10-53) from full-length beta-catenin
Target sequence in this assay (P35222 whole entry): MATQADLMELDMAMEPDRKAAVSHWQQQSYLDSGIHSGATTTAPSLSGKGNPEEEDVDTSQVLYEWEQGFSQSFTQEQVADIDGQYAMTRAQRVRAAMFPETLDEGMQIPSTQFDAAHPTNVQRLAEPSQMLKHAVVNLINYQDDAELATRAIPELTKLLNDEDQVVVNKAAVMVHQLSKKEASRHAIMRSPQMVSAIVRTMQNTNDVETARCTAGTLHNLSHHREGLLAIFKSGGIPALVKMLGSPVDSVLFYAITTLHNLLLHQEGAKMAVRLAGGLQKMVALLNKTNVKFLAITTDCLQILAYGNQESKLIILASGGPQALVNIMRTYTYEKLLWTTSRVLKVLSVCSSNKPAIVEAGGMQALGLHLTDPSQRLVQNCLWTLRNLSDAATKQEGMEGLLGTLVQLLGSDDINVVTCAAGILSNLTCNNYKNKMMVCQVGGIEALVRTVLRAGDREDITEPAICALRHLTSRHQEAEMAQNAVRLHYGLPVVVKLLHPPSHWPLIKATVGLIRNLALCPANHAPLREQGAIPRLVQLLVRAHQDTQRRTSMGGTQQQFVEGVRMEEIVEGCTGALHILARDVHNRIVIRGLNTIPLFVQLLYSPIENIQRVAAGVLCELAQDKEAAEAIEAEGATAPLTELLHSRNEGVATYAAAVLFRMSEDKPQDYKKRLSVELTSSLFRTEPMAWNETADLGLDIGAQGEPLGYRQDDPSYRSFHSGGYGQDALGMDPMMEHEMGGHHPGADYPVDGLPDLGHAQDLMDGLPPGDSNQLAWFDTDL

First: Ac-[αAllylPro]D[tBuAla][B5(5)]DDAAFQ[PyrS2][3Thi][Bta]H-NH2 (staple 1-4, 4-11) [I-1460]
Second: Ac-[αAllylPro]DK(Lithocholoyl)[B5(5)]DDAAFL[PyrS2][3Thi][Bta]Q-NH2 (staple 1-4, 4-11) [I-1469]
The IC50 of the first is 14-fold lower: 7 nM for the first, 95 nM for the second. The first is the more potent here.

Compared with Ac-[αAllylPro]D[tBuAla][B5(5)]DDAAFQ[PyrS2][3Thi][Bta]H-NH2 (staple 1-4, 4-11) [I-1459], Ac-[αAllylPro]DK([PEG2′-Lithocholoyl])[B5(4)]DDAAFL[PyrS2][3Thi][Bta]Q-NH2 (staple 1-4, 4-11) [I-1470] is 11-fold higher in IC50: 5 nM for the first, 57 nM for the second. The first is the more potent here.

First: Ac-[αAllylPro]D[tBuAla][B5(4)]DD[(CH2NMe2)4SEF]AFL[PyrS2]F[Bta]Q (staple 1-4, 4-11) [I-1467]
Second: Ac-[αAllylPro]DK(Me3AdamantC)[B5(4)]DDAAFL[PyrS2][3Thi][Bta]Q-NH2 (staple 1-4, 4-11) [I-1471]
The IC50 of the first is 2.8-fold lower: 12 nM for the first, 34 nM for the second. The first is the more potent here.
